{"source": "patent US20210138090A1", "about": "“uPAR targeting peptide for use in peroperative optical imaging of invasive cancer” (FLUOGUIDE A/S, priority 2014, published 2021)", "key": {"uPAR wt": {"molecular_target": "uPAR wt (Homo sapiens, UniProt Q03405)", "sequence (Q03405 23-305 limits assumed)": "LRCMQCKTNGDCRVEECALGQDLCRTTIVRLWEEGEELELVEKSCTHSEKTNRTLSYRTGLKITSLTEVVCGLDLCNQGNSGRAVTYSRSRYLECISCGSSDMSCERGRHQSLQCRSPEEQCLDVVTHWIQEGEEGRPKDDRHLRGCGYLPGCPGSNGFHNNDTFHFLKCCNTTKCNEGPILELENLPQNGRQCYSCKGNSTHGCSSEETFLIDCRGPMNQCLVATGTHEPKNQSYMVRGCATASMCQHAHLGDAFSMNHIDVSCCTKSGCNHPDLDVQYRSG", "assay": "SPR inhibition of uPAR binding to immobilized uPA", "protocol": "(§1) Covalent immobilization of purified human prouPA^S356A—was accomplished by injecting 12.5 μg/ml protein dissolved in 10 mM sodium acetate (pH 5.0) over a CM5 chip that had been pre-activated with NHS/EDC (N-ethyl-N′-[3-[…])propyl]-carbodiimide), aiming at a surface density of >5000 resonance units (RU) corresponding to 100 fmols/mm^2. After coupling the sensorchip was deactivated with 1 M ethanolamine. Binding of purified human uPAR as analyte was measured from 4 nM to 0.25 nM at 20° C. using 10 mM HEPES, 150 mM NaCl, 3 mM EDTA (pH 7.4) containing 0.05% (v/v) surfactant P20 as running buffer at a flow rate of 50 μl/min. In between cycles the sensorchip was regenerated by two consecutive 10-μl injections of 0.1 M acetic acid/HCl (pH 2.5) in 0.5 M NaCl. The inhibition of 3-fold dilutions of the compounds in question was measured for 4 nM uPAR with identical running conditions. All experiments were performed on a BiacoreT200 instrument.\n(§2) For each inhibition peptide inhibition profile of uPAR binding to immobilized uPA there has been run a preceding standard curve and all calculations are based on the that standard curve.\n(§3) Surface plasmon resonance (SPR) was applied to determine the […]-value of IRDye800-AE344 on the uPAR⋅uPA interaction in solution using a Biacore 3000 instrument essentially as described. In brief; pro-uPA^S356A, which is the natural ligand for uPAR. […] The analysis was carried out by measuring vobs of a fixed uPAR concentration (2 nM) incubated with a 3-fold dilution series of IRDye800-AE344 (ranging from 0.076 nM to 1.5 μM) for 300 sec at 20° C. with a flow rate of 50 μL/min. A standard curve was measured in parallel (2-fold dilution of uPAR covering 0.06 nM to 2 nM) including one repeated concentration point at the end to validate the biological integrity of the sensor chip. Running buffer contained 10 mM HEPES, 150 mM NaCl, 3 mM EDTA and 0.05% (v/v) surfactant P20, pH 7.4. The sensor chip was regenerated with two injections of 0.1 M acetic acid, 0.5 M NaCl. The parent nonamer peptide antagonist AE105 (Asp-Cha-Phe-D-Ser-D-Arg-Tyr-Leu-Trp-Ser-OH) was analyzed in parallel as positive control and the closed uPAR^H47C-N259C was used as negative control as its uPA binding cavity cannot accommodate AE105."}, "uPAR H47C-N259C": {"molecular_target": "uPAR H47C-N259C (Homo sapiens, UniProt Q03405, H69C/N281C)", "sequence (Q03405 23-305 H69C/N281C limits assumed)": "as the sequence (Q03405 23-305 limits assumed) above, with H47C, N259C counted along it", "assay": "SPR inhibition of uPAR binding to immobilized uPA, constrained uPAR variant (negative control)", "protocol": "as §1, §2\nas §3, with “Running buffer contained 10 mM HEPES, 150 mM NaCl, 3 mM EDTA and 0.05% (v/v) surfactant P20, pH 7.4. The sensor chip was regenerated with two injections of 0.1 M acetic acid, 0.5 M NaCl.” left out"}, "[1]": {"assay": "vis/NIR spectral properties", "format": "physicochemical", "protocol": "Fluorophore excitation and emission profiles were obtained with PTI QuantaMaster 400 (Horiba Ltd., Japan). Excitation profile was measured at λemission=850 nm and the emission profile were measured at λexcitation=740 nm with xenon arc lamps as excitation source. Absorption was measured on a Cary 300 UV-Vis (Agilent, Santa Clara, Calif., USA)."}, "[2]": {"assay": "photostability under continuous laser exposure", "format": "physicochemical", "protocol": "The photostability was evaluated by a factor 2 dilution series with four samples from 0.23-1.8 nM IRDye800-AE344 in 100 μL phosphate buffered saline (PBS) placed in a black 96-well plate. The well was placed in a black box with the Fluobeam mounted in the top at a distance of 23 cm from the well plate. Image acquisition was performed at 0 min, 10 min, 15 min, 20 min, 0.5 h, 1 h, 2 h, 3 h, 6 h, 10 h, 15 h, 24 h. Each dilution sample was normalized to time point 0 and the data from all four samples were pooled."}, "[3]": {"assay": "biodistribution by organ fluorescence imaging", "format": "in vivo, mice", "conditions": "3 nmol, 1 h", "from_the_text": "[…] Due to renal excretion, the fluorescence signal in the kidneys were out of scale compared to all the other organs. […] The skin was imaged partially (1.25 g) and the biodistribution was extrapolated with respect to the full weight of the skin (4.9 g)."}, "[4]": {"assay": "acute toxicity: liver and kidney histology", "format": "in vivo, mice", "conditions": "3 nmol, 1 h post injection", "from_the_text": "Liver and kidneys: Tissue was formalin fixed and paraffin embedded. Sections of 2-4 um thick were cut and a routine staining panel applied including: H&E, modified sirius, PAS and Masson trichome for both and additional PAS with silver for kidneys and PAS with diastase, iron, reticulin artisan and oxidised orcein for the livers. Livers were immunohistochemically stained, immunohistochemical evaluation on 3 μm thick sections was done using the CK7 antibody from Dako/Agilent, GA619 (clone OV-TL12/30) following the manufacturer's instructions. The staining took place on the Omnis from Agilent utilizing the EnVision Flex+ detection kit (GV800). The primary antibody was diluted using Antibody Diluent (Dako DM830) and were incubated for 20 minutes. The sections were counterstained with hematoxylin."}}, "note": "Square brackets hold non-standard residues; d marks the D form. Peptide text beside a SMILES is read from it. * marks the point of attachment. IRDye800CW = CC1(C)C(/C=C/C2=C(Oc3ccc(S(=O)(=O)O)cc3)C(=C/C=C3/N(CCCCS(=O)(=O)O)c4ccc(S(=O)(=O)O)cc4C3(C)C)/CCC2)=[N+](CCCCCC(=O)*)c2ccc(S(=O)(=O)[O-])cc21; Cha = N[C@@H](CC1CCCCC1)C(=O)O; AEEA = NCCOCCOCC(=O)O", "data": [{"smiles": "CC(C)C[C@H](NC(=O)[C@H](Cc1ccc(O)cc1)NC(=O)[C@@H](CCCNC(=N)N)NC(=O)[C@@H](CO)NC(=O)[C@H](Cc1ccccc1)NC(=O)[C@H](CC1CCCCC1)NC(=O)[C@H](CC(=O)O)NC(=O)COCCOCCNC(=O)COCCOCCNC(=O)[C@H](CCC(=O)O)NC(=O)[C@H](CCC(=O)O)NC(=O)CCCCC[N+]1=C(/C=C/C2=C(Oc3ccc(S(=O)(=O)O)cc3)C(=C/C=C3/N(CCCCS(=O)(=O)O)c4ccc(S(=O)(=O)O)cc4C3(C)C)/CCC2)C(C)(C)c2cc(S(=O)(=O)[O-])ccc21)C(=O)N[C@@H](Cc1c[nH]c2ccccc12)C(=O)N[C@@H](CO)C(=O)O", "note": "[IRDye800CW-AE344, IRDye800-Glu-Glu-O2Oc-O2Oc-Asp-Cha-Phe-D-ser-D-arg-Tyr-Leu-Trp-Ser-OH] (IRDye800CW-EE[AEEA][AEEA]D[Cha]F[dS][dR]YLWS-OH)", "values": [{"measurement": "IC50", "setting": "uPAR wt", "value": "20 ± 1.1", "unit": "nM"}, {"measurement": "IC50", "setting": "uPAR H47C-N259C", "value": "5800 ± 20", "unit": "nM"}, {"measurement": "Stokes shift", "setting": "[1]", "value": 10, "unit": "nm"}, {"measurement": "absorption peak λabs,max", "setting": "[1]", "value": 777, "unit": "nm"}, {"measurement": "excitation peak λexcitation,max", "setting": "[1]", "value": 784, "unit": "nm"}, {"measurement": "peak emission λemission,max", "setting": "[1]", "value": 794, "unit": "nm"}, {"measurement": "preserved fluorescence intensity (photostability)", "setting": "[2]; continuous laser exposure for 1 h", "value": 84, "unit": "%"}, {"measurement": "preserved fluorescence intensity (photostability)", "setting": "[2]; continuous laser exposure, after 2 h", "value": 62, "unit": "%"}, {"measurement": "MFI brain", "setting": "[3]; 333 ms exposure", "value": 19, "unit": "a.u."}, {"measurement": "MFI liver", "setting": "[3]; 333 ms exposure", "value": 88, "unit": "a.u."}, {"measurement": "MFI lungs", "setting": "[3]; 333 ms exposure", "value": 101, "unit": "a.u."}, {"measurement": "MFI skin", "setting": "[3]; 333 ms exposure", "value": 99, "unit": "a.u."}, {"measurement": "MFI tumor", "setting": "[3]; 333 ms exposure", "value": 65, "unit": "a.u."}, {"measurement": "normalized uptake brain", "setting": "[3]; normalized to skin=100", "value": 0.7}, {"measurement": "normalized uptake colon", "setting": "[3]; normalized to skin=100", "value": 4.0}, {"measurement": "normalized uptake heart", "setting": "[3]; normalized to skin=100", "value": 0.4}, {"measurement": "normalized uptake kidneys", "setting": "[3]; normalized to skin=100", "value": 38.8}, {"measurement": "normalized uptake liver", "setting": "[3]; normalized to skin=100", "value": 12.2}, {"measurement": "normalized uptake lungs", "setting": "[3]; normalized to skin=100", "value": 4.2}, {"measurement": "normalized uptake pancreas", "setting": "[3]; normalized to skin=100", "value": 3.4}, {"measurement": "normalized uptake small intestine", "setting": "[3]; normalized to skin=100", "value": 11.2}, {"measurement": "normalized uptake spleen", "setting": "[3]; normalized to skin=100", "value": 0.4}, {"measurement": "normalized uptake tumor", "setting": "[3]; normalized to skin=100", "value": 0.1}, {"measurement": "normalized uptake ventricle", "setting": "[3]; normalized to skin=100", "value": 0.9}, {"measurement": "normalized uptake skin", "setting": "[3]; skin = reference", "value": 100}, {"measurement": "MFI kidneys", "setting": "[3]; extrapolated from 40 ms exposure", "value": "1,236 a.u."}, {"measurement": "kidney histology (H&E stained)", "setting": "[4]", "value": "normal"}, {"measurement": "liver histology (H&E stained)", "setting": "[4]", "value": "normal"}]}]}
